In PMC6315561:

Tests used:
[1] = target: Full baseplate complex of phage Phi4.2 (Dit, Tal, RBP1, RBP2) (Lactococcus phage Phi4.2); assay: negative stain electron microscopy; purified baseplate complexes at 0.03 mg/mL on carbon-coated grids, Ca2+ in the protein buffer; baseplate to back-to-back dimer of baseplates
[2] = target: ΔRBP1_(Phi4.2) baseplate complex (Dit, Tal, RBP2) (Lactococcus phage Phi4.2); assay: as above

Substance | stoichiometry N [1] | stoichiometry N [2]
Full baseplate complex of phage Phi4.2 (Dit, Tal, RBP1, RBP2) | 2 | –
ΔRBP1_(Phi4.2) baseplate complex (Dit, Tal, RBP2) | – | 2
